Patent publication US20100222258A1 (KABUSHIKI KAISHA HAYASHIBARA SEIBUTSU KAGAKU KENKYUJO, published 2010)
Positions count from the first letter of the chain named. Blank lines part the entries; values can stand above or below the binder they belong to.

Key:
[1] = biological target: T1, TNF-R2 (a protein having the amino acid sequence, Accession No. M55994 registered at GENBANK) (UniProt P20333 23-257, limits assumed); assay: SPR (BIACORE 2000), receptor on sensor tip; grade 1 = 0.001 to 0.1 time that of recombinant TNF-α
T1 construct: also called TNF receptor with 75 kilo daltons
T1 sequence (looked up): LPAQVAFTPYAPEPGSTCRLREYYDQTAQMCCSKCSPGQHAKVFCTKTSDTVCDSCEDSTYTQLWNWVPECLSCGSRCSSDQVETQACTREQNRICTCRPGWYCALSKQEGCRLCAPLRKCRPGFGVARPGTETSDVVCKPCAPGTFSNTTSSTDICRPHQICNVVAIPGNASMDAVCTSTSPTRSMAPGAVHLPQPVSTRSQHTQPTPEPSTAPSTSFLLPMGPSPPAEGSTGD
Source text: (§1) Using the above detector based on surface plasmon resonance effect again, the resulting clones binding to TNF-R1 (or TNF-R2) were subjected to the remaining sensor tip conjugated with TNF-R2 (or TNF-R1) to measure receptor binding affinity and select clones having a variation of receptor binding affinity. […] The resulting DNAs were digested with restrict enzymes NdeI and BamHI to obtain DNA fragments. The resulting DNA fragments were introduced into a plasmid vector containing T7 promoter region, T7 terminator region, ampicillin resistant gene region and ColE1/Ori region (product name “pET-3a”, manufactured by “Novagen®” (EMD Biosciences, Inc.)) at the position of the above restriction sites. The resulting plasmid was introduced into E. coli BL21DE3 strain to obtain a transformed E. coli for producing the TNF mutant proteins. The obtained transformed E. coli was cultured according to usual method and centrifuged to collect E. coli pellet. The resulting pellet was washed twice with TES buffer (pH 8.0) (20 mM Tris-HCl, 10 mM ethylene diamine tetraacetic acid and 0.5 M sodium chloride) and admixed with TES buffer (pH 8.0) containing 0.2 mg/ml lysozyme. The resulting suspension was sonicated according to usual manner, and centrifuged to collect a precipitate containing the produced TNF mutant protein. The resulting precipitate was treated three times in a manner of admixing with TES buffer containing 1 (w/w) % Triton X-100, removed from supernatant by centrifuging, admixed with 50 mM Tris-HCl (pH 7.0) containing 8 M guanidine hydrochloride and 50 mM dithiothreitol, with stirring for 16 hours at ambient temperature under shielded condition, and centrifuged to collect a supernatant. The resulting supernatant was gently admixed with 100 time volumes of a aqueous solution containing 1 M Tris, 0.9 (w/v) % sodium chloride, 0.4 M L-arginine chloride, 2.5 mM reduced glutathione, 0.5 mM oxidized glutathione and 0.05 (w/v) % Tween 20, and kept at 4° C. for 16 hours.

[2] = biological target: T2, TNF-R1 (a protein having the amino acid sequence, Accession No. M58286 registered at GENBANK) (UniProt P19438 30-211, limits assumed); assay: SPR (BIACORE 2000), receptor on sensor tip; grade 4 = two times or more that of recombinant TNF-α
T2 construct: also called TNF receptor having a molecular weight of 55 kilo daltons
T2 sequence (looked up): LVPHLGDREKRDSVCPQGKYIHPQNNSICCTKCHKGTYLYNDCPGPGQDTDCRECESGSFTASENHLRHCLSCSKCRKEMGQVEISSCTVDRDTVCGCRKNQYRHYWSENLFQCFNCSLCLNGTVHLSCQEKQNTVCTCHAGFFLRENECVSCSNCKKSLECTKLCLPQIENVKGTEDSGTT
Source text: as §1

[3] = biological target: T2, TNF-R1 (a protein having the amino acid …); assay: SPR (BIACORE 2000), receptor on sensor tip; grade 3 = 0.5 to 2 times that of recombinant TNF-α
Source text: as §1

TNF-R1 on HEp-2 cells = biological target: T3, TNF-R1 on HEp-2 cells (human, UniProt P19438 30-455); assay: cell-based or functional assay
T3 sequence (looked up): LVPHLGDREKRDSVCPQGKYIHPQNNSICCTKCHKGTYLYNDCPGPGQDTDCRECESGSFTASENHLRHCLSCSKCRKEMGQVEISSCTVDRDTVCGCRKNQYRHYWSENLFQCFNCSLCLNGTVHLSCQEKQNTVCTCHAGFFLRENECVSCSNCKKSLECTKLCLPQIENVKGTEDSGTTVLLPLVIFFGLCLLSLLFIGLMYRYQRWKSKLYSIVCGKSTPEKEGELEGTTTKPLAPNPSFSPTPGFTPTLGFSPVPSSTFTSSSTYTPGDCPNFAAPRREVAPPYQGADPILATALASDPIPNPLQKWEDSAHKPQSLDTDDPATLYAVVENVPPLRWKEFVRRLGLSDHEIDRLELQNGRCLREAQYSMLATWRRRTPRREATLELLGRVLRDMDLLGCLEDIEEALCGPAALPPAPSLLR

TNF-R1 on L-M cells = biological target: T4, TNF-R1 on L-M cells (mouse, UniProt P25118 30-454); assay: cell-based or functional assay
T4 sequence (looked up): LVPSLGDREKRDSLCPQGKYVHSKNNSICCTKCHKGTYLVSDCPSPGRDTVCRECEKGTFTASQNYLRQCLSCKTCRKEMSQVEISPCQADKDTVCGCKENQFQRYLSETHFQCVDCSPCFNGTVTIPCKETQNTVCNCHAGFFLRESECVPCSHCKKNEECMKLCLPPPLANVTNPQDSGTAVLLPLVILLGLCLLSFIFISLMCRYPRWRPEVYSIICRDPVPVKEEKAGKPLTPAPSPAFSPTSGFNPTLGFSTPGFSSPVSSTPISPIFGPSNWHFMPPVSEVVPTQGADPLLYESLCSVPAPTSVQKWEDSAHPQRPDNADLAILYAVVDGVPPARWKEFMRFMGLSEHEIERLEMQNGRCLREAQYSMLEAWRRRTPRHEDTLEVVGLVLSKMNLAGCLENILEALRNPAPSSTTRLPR

B4: TNF mutant protein of clone No. 38 (ligand)
chain: VRSSSRTPSDMPVAHVVANPQAEGQLQWLNRRANALLANGVELRDNQLVVPSEGLYLIYSQVLFSGQGCPSTHVLLTHTISRIGGPYQRPVNLLSAIRSPCQRETPEGAEANPWYEPIYLGGVFQLEPGDRLSAEINRPDYLDFAESGQVYFGIIAL
notes: Mutant of lysine-replaced TNF, made in E. coli; also called TNF antagonist of clone No. 38
Viability (%) of HEp-2 cells, 10 ng/ml TNF-α + 1,000 ng/ml TNF antagonist (9 without antagonist) (TNF-R1 on HEp-2 cells): 11% | Viability (%) of HEp-2 cells, 10 ng/ml TNF-α + 10,000 ng/ml TNF antagonist (9 without antagonist) (TNF-R1 on HEp-2 cells): 22% | Viability (%) of HEp-2 cells, 10 ng/ml TNF-α + 100,000 ng/ml TNF antagonist (9 without antagonist) (TNF-R1 on HEp-2 cells): 72% | Viability (%) of HEp-2 cells, 10 ng/ml TNF-α + 500,000 ng/ml TNF antagonist (9 without antagonist) (TNF-R1 on HEp-2 cells): 95% | Viability (%) of L-M cells, 10 ng/ml TNF-α + 1,000 ng/ml TNF antagonist (17 without antagonist) (TNF-R1 on L-M cells): 42% | Viability (%) of L-M cells, 10 ng/ml TNF-α + 10,000 ng/ml TNF antagonist (17 without antagonist) (TNF-R1 on L-M cells): 47% | Viability (%) of L-M cells, 10 ng/ml TNF-α + 100,000 ng/ml TNF antagonist (17 without antagonist) (TNF-R1 on L-M cells): 58% | Viability (%) of L-M cells, 10 ng/ml TNF-α + 500,000 ng/ml TNF antagonist (17 without antagonist) (TNF-R1 on L-M cells): 70% | binding affinity relative to recombinant TNF-α [3]: 0.5 to 2 fold | binding affinity relative to recombinant TNF-α [1]: 0.001 to 0.1 fold

B6: TNF mutant protein of clone No. 33 (ligand)
chain: B4 chain with G84N, G85H, P86R, R89D
notes: Mutant of lysine-replaced TNF, made in E. coli
binding affinity relative to recombinant TNF-α [1]: 0.001 to 0.1 fold | binding affinity relative to recombinant TNF-α [2]: ≥ 2 fold

B8: TNF mutant protein of clone No. 21 (ligand)
chain: B4 chain with G84T, G85S, P86A, Q88G, R89P
notes: as for B6
binding affinity relative to recombinant TNF-α [1]: 0.001 to 0.1 fold | binding affinity relative to recombinant TNF-α [2]: ≥ 2 fold

B9: TNF mutant protein of clone No. 6 (ligand)
chain: VRSSSRTPSDMPVAHVVANPQAEGQLQWSNRYANALLANGVELRDNQLVVPSEGLYLIYSQVLFSGQGCPSTHVLLTHTISRIAVSYQTPVNLLSAIRSPCQRETPEGAEANPWYEPIYLGGVFQLEPGDRLSAEINRPDYLDFSM
notes: Mutant of lysine-replaced TNF, made in E. coli; stop codon at position 147
binding affinity relative to recombinant TNF-α [3]: 0.5 to 2 fold | binding affinity relative to recombinant TNF-α [1]: 0.001 to 0.1 fold

More lines, main results first:

binding affinity relative to recombinant TNF-α [1]: 0.001 to 0.1 fold | binding affinity relative to recombinant TNF-α [2]: ≥ 2 fold
B1: TNF mutant protein of clone No. 24 (ligand)
chain: B4 chain with G84T, G85H, P86K, Q88P, R89Q
notes: as for B6

binding affinity relative to recombinant TNF-α [1]: 0.001 to 0.1 fold | binding affinity relative to recombinant TNF-α [2]: ≥ 2 fold
B2: TNF mutant protein of clone No. 25 (ligand)
chain: B4 chain with G84S, G85K, P86T, Q88S, R89H
notes: as for B6

binding affinity relative to recombinant TNF-α [3]: 0.5 to 2 fold | binding affinity relative to recombinant TNF-α [1]: 0.001 to 0.1 fold
B3: TNF mutant protein of clone No. 29 (ligand)
chain: B4 chain with G84T, G85E, P86Q, Q88S, R89H
notes: as for B6

binding affinity relative to recombinant TNF-α [3]: 0.5 to 2 fold | binding affinity relative to recombinant TNF-α [1]: 0.001 to 0.1 fold
B5: TNF mutant protein of clone No. 17 (ligand)
chain: B4 chain with G84S, G85K, P86T, Q88T, R89H
notes: as for B6

binding affinity relative to recombinant TNF-α [3]: 0.5 to 2 fold | binding affinity relative to recombinant TNF-α [1]: 0.001 to 0.1 fold
B7: TNF mutant protein of clone No. 36 (ligand)
chain: B4 chain with G84A, G85P, P86G, Q88S, R89H
notes: Mutant of lysine-replaced TNF, made in E. coli; also called TNF antagonist of clone No. 36
Viability (%) of HEp-2 cells, 10 ng/ml TNF-α + 1,000 ng/ml TNF antagonist (9 without antagonist) (TNF-R1 on HEp-2 cells): 12% | Viability (%) of HEp-2 cells, 10 ng/ml TNF-α + 10,000 ng/ml TNF antagonist (9 without antagonist) (TNF-R1 on HEp-2 cells): 13% | Viability (%) of HEp-2 cells, 10 ng/ml TNF-α + 100,000 ng/ml TNF antagonist (9 without antagonist) (TNF-R1 on HEp-2 cells): 38% | Viability (%) of HEp-2 cells, 10 ng/ml TNF-α + 500,000 ng/ml TNF antagonist (9 without antagonist) (TNF-R1 on HEp-2 cells): 74% | Viability (%) of L-M cells, 10 ng/ml TNF-α + 1,000 ng/ml TNF antagonist (17 without antagonist) (TNF-R1 on L-M cells): 43% | Viability (%) of L-M cells, 10 ng/ml TNF-α + 10,000 ng/ml TNF antagonist (17 without antagonist) (TNF-R1 on L-M cells): 54% | Viability (%) of L-M cells, 10 ng/ml TNF-α + 100,000 ng/ml TNF antagonist (17 without antagonist) (TNF-R1 on L-M cells): 63% | Viability (%) of L-M cells, 10 ng/ml TNF-α + 500,000 ng/ml TNF antagonist (17 without antagonist) (TNF-R1 on L-M cells): 59%
